Assay results: US20040116336A1 (TAKADA PHARMACEUTICAL, published 2004)
Like-named read-outs stand apart in the source and are kept apart here. Blank lines part the entries; values can stand above or below the binder they belong to. Starred links: 1 amine or outer side, 2 acyl side, 3 side chain; linkers in the order of their positions; H or OH if unused. Non-standard residues stand in square brackets, D forms with d. No end group written: not given here. Pyn = 1-pyrenylalanine, O=C([C@H](Cc1ccc2ccc3cccc4ccc1c2c34)N[*:1])[*:2]; Phe(4-Cl) = N[C@@H](Cc1ccc(Cl)cc1)C(=O)O; Lys(Me2) = CN(C)CCCC[C@H](N)C(=O)O; Cha = N[C@@H](CC1CCCCC1)C(=O)O

What was measured:
[1] = target: T1, APJ (orphan G protein-coupled receptor protein); test: radioligand competition, 125I-labelled compound of Ref. Ex. 1 (100 pM), CHO-A10 membrane fraction
T1 chain: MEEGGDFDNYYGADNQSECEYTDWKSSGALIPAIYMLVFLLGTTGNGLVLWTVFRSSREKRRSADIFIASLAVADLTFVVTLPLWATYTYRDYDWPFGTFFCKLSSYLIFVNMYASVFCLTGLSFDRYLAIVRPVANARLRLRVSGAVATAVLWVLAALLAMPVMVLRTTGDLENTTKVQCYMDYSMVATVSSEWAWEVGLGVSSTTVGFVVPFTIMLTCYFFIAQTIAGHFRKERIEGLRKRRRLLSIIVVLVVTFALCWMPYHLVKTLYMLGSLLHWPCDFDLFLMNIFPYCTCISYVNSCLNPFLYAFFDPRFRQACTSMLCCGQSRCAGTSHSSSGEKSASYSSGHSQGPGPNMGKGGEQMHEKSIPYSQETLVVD
Description: This product was mixed with an equal volume of an assay buffer (50 mM Tris-HCl/pH 7.5, 5 mM EDTA, 0.5 mM PMSF, 20 μg/ml leupeptin, 0.1 μg/ml pepstatin A, 4 μg/ml E-64 (Peptide Research Laboratory, Co.), 0.1% bovine serum albumin) and stored at −30° C. before use.
CHO-A10 cells were cultured, recovered with PBS containing 5 mM EDTA from a culture vessel, and suspended in the above-mentioned assay buffer not containing bovine serum albumin. The cells were homogenized 3 times at 12,000 rpm for 15 seconds by a Polytron homogenizer (manufactured by Kinematica Inc.) and then centrifuged (1000×g, 4° C., 10 minutes), and the supernatant was recovered. The precipitates were subjected again to the same procedure as above, and the respective supernatants were combined and centrifuged at 100,000×g, 4° C. for 1 hour, to recover precipitates (membrane fraction). The membrane fraction was suspended again in a small amount of the buffer, homogenized with a Teflon homogenizer and stored at −80° C. before use.
Binding assay was carried out under the following conditions. […] containing 0.25 μg of the membrane fraction, the ¹²⁵I-labeled compound at a final concentration of 100 pM, a test sample and an assay buffer were put onto each well of a 96-well polypropylene plate, and incubated at room temperature for 1.5 hours. Measurement of non-specific binding was carried out using a well containing 1 μM unlabeled compound in place of the test sample. After the incubation was finished, a cell harvester (Packard) adapted to 96 wells and a filter unit (GF/C, Packard) were used for separation thereby capturing the membrane fraction on the filter. After the filter was sufficiently dried, Microcinti 0 (Packard) was added thereto, and using Top Count (Packard), the amount of the labeled material captured together with the membrane fraction on the filter was measured.

[2] = target: T1, APJ (orphan G protein-coupled receptor …); test: cell-based or functional assay
[3] = target: T1, APJ (orphan G protein-coupled receptor …); test: radioligand competition, compound of Ref. Ex. 2 as labelled ligand, CHO-A10 membrane fraction
[4] = target: T1, APJ (orphan G protein-coupled receptor …); test: cell-based or functional assay
[5] = target: T1, APJ (orphan G protein-coupled receptor …); test: radioligand competition, compound of Ref. Ex. 2 as labelled ligand, CHO-A10 membrane fraction
[6] = target: T1, APJ (orphan G protein-coupled receptor …); test: radioligand competition, 125I-labelled compound of Ref. Ex. 1 (100 pM), CHO-A10 membrane fraction
[7] = target: T1, APJ (orphan G protein-coupled receptor …); test: radioligand competition, compound of Ref. Ex. 2 as labelled ligand, CHO-A10 membrane fraction
[8] = target: T1, APJ (orphan G protein-coupled receptor …); test: cell-based or functional assay

B1: Arg-Arg-Lys-Arg-Pro-Arg-Leu-Ser-His-Lys-Gly-Pro-Met-Pro-Phe (peptide)
peptide: RRKRPRLSHKGPMPF
notes: also called Compound in Ex. 23
IC50 [1]: 9.2 nM | EC50, inhibition of forskolin-stimulated cAMP production (CHO-A10 clone 6 cells) [2]: 0.31 nM | IC50 [3]: 0.09 nM

B3: Arg-Pro-Arg-Leu-Ser-Ala-Arg-Gly-Pro-Cha-Pyn (peptide)
peptide: RPRLSARGP[Cha][Pyn]
modifications: not fully specified; printed as Arg-Pro-Arg-Leu-Ser-Ala-Arg-Gly-Pro-Cha-Pyn
notes: also called Compound in Ex. 60
EC50, inhibition of forskolin-stimulated cAMP production (CHO-A10 clone 6 cells) [4]: 1.1 nM | IC50 [5]: 0.8 nM | IC50 [6]: 1.1 nM

B4: Arg-Arg-Gln-Arg-Pro-Arg-Leu-Ser-Ala-Arg-Gly-Gly-Cha (peptide)
peptide: RRQRPRLSARGG[Cha]
modifications: not fully specified; printed as Arg-Arg-Gln-Arg-Pro-Arg-Leu-Ser-Ala-Arg-Gly-Gly-Cha
notes: also called Compound in Ex. 62
EC50, inhibition of forskolin-stimulated cAMP production (CHO-A10 clone 6 cells) [4]: 0.23 nM | IC50 [5]: 0.14 nM | IC50 [6]: 0.23 nM

B7: Arg-Pro-Arg-Leu-Phe-Ala-Arg-Gly-Pro-Met-Pro-Phe (peptide)
peptide: RPRLFARGPMPF
notes: also called Compound in Ex. 31
EC50, inhibition of forskolin-stimulated cAMP production (CHO-A10 clone 6 cells) [2]: 0.14 nM | IC50 [3]: 0.27 nM

B8: Arg-Arg-Gln-Arg-Pro-Arg-Leu-Ser-Ala-Arg-Gly-Pro (peptide)
peptide: RRQRPRLSARGP
EC50, inhibition of forskolin-stimulated cAMP production (CHO-A10 clone 6 cells) [2]: 0.26 nM

B10: Arg-Pro-Lys(Me)2-Leu-Ser-Ala-Arg-Gly-Pro-Met-Pro-Phe (peptide)
peptide: RP[Lys(Me2)]LSARGPMPF
notes: also called Compound in Ex. 63
EC50, inhibition of forskolin-stimulated cAMP production (CHO-A10 clone 6 cells) [4]: 0.33 nM | IC50 [5]: 0.074 nM | IC50 [6]: 0.33 nM

B11: Arg-Pro-Arg-Leu-Phe-Ala-Arg-Gly-Pro-Met-Phe (peptide)
peptide: RPRLFARGPMF
notes: also called Compound in Ex. 47
EC50, inhibition of forskolin-stimulated cAMP production (CHO-A10 clone 6 cells) [2]: 0.36 nM | IC50 [3]: 1.8 nM

B12: Arg-Pro-Arg-Leu-Ser-Ala-Arg-Gly-Pro-Met-Pro-Phe (peptide)
peptide: RPRLSARGPMPF
notes: also called Compound in Ex. 24
IC50 [1]: 27 nM | EC50, inhibition of forskolin-stimulated cAMP production (CHO-A10 clone 6 cells) [2]: 0.25 nM | IC50 [3]: 0.057 nM

B14: Arg-Pro-Arg-Leu-Ser-His-Lys-Gly-Pro-Met-Pro-Phe(Cl) (peptide)
peptide: RPRLSHKGPMP[Phe(4-Cl)]
notes: also called Compound in Ex. 8
IC50 [7]: 0.039 nM | IC50 [1]: 13 nM | EC50, inhibition of forskolin-stimulated cAMP production (CHO-A10 clone 6 cells) [8]: 0.34 nM

B15: Arg-Pro-Arg-Leu-Ser-Ala-Lys(Me)2-Gly-Pro-Met-Pro-Phe (peptide)
peptide: RPRLSA[Lys(Me2)]GPMPF
notes: also called Compound in Ex. 64
EC50, inhibition of forskolin-stimulated cAMP production (CHO-A10 clone 6 cells) [4]: 0.38 nM | IC50 [6]: 0.38 nM

B16: Arg-Arg-Ala-Arg-Pro-Arg-Leu-Ser-His-Lys-Gly-Pro-Met-Pro-Phe (peptide)
peptide: RRARPRLSHKGPMPF
notes: also called Compound in Ex. 25
IC50 [1]: 34 nM | EC50, inhibition of forskolin-stimulated cAMP production (CHO-A10 clone 6 cells) [2]: 0.25 nM | IC50 [3]: 0.067 nM

B17: Arg-Arg-Gln-Arg-Pro-Arg-Leu-Ser-Ala-Arg-Gly-Pro-Met (peptide)
peptide: RRQRPRLSARGPM
notes: also called Compound in Ex. 18
IC50 [1]: 2.5 nM | EC50, inhibition of forskolin-stimulated cAMP production (CHO-A10 clone 6 cells) [2]: 0.18 nM | IC50 [3]: 0.023 nM

More lines, now with the values ahead:

EC50, inhibition of forskolin-stimulated cAMP production (CHO-A10 clone 6 cells) [2]: 0.32 nM
B2: Arg-Arg-Arg-Arg-Pro-Arg-Leu-Ser-His-Lys-Gly-Pro-Met-Pro-Phe (peptide)
peptide: RRRRPRLSHKGPMPF

EC50, inhibition of forskolin-stimulated cAMP production (CHO-A10 clone 6 cells) [4]: 2.2 nM | IC50 [5]: 0.56 nM | IC50 [6]: 2.2 nM
B5: Arg-Pro-Arg-Leu-Ser-Ala-Arg-Gly-Pro-Cha-Pro-Pyn (peptide)
peptide: RPRLSARGP[Cha]P[Pyn]
modifications: not fully specified; printed as Arg-Pro-Arg-Leu-Ser-Ala-Arg-Gly-Pro-Cha-Pro-Pyn
notes: also called Compound in Ex. 61

IC50 [3]: 0.11 nM
B6: Arg-Pro-Arg-Leu-Ser-Ala-Arg-Gly-Pro-Met (peptide)
peptide: RPRLSARGPM
notes: also called Compound in Ex. 27

EC50, inhibition of forskolin-stimulated cAMP production (CHO-A10 clone 6 cells) [2]: 1.1 nM | IC50 [3]: 0.37 nM
B9: Arg-Arg-Phe-Arg-Pro-Arg-Leu-Ser-His-Lys-Gly-Pro-Met-Pro-Phe (peptide)
peptide: RRFRPRLSHKGPMPF
notes: also called Compound in Ex. 33

IC50 [3]: 0.036 nM
B13: Arg-Arg-Gln-Arg-Pro-Arg-Leu-Ser-Ala-Arg-Gly-Pro-Met-Pro-Phe (peptide)
peptide: RRQRPRLSARGPMPF
notes: also called Compound in Ex. 17
